# Experiments:
# human CD40 [1] = molecular target: T1, human CD40 (human, UniProt P25942 21-277); test: cell-based or functional assay
# human CD40 [2] = molecular target: T1, human CD40; test: cell-based or functional assay; remark: listed apart in the source
# human CD40 [3] = molecular target: T1, human CD40; test: flow cytometry, Daudi cells, PE anti-human Fc F(ab')2
# Experimental: (§1) The binding to cell surface CD40 was tested using Daudi cells, a human B lymphoblast cell line with high expression levels of human CD40 (ATCC CCL-213). Daudi cells were cultured with 1× Dulbecco's Modified Eagle's Medium (DMEM) (Gibco, Cat. No. 42430-025) supplemented with 10% Fetal Bovine Serum (FBS) (life technologies, Cat. No. 16140, Lot No. 1797306A). 0.3×10⁵ Daudi cells were added in 200 μl of 1×DMEM with 10% FBS to each well of a round-bottom 96-well plate (Greiner Bio-One, CELLSTAR®, Cat. No. 650185). Plates were centrifuged 5 minutes at 1700 rpm and supernatants were flicked off. Cells were washed once with 200 μL of 4° C. cold FACS buffer (eBioscience, Cat. No. 00-4222-26). All samples were resuspended in 50 μL/well of 4° C. cold FACS buffer containing the bispecific antigen binding molecules (primary antibody) or isotype control antibody DP47 at the indicated range of concentrations (in duplicates) and incubated for 120 minutes at 4° C. Afterwards the cells were washed three times with 200 μL 4° C. cold FACS buffer. Cells were further stained with 25 μL/well of 4° C. cold secondary antibody solution (1:50 dilution of secondary antibody) containing R-Phycoerythrin (PE) conjugated AffiniPure F(ab′)₂ Fragment Goat Anti-Human IgG, Fcγ Fragment Specific (Jackson ImmunoResearch, Cat. No. 109-116-098) and incubated for 60 minutes at 4° C. in the dark. Cells were washed with 200 μl FACS buffer and resuspended in 85 μL/well FACS-buffer containing 0.2 μg/mL DAPI (Roche, Cat. No. 10236276001) and acquired the same day using a 5-laser LSR-Fortessa (BD Bioscience with DIVA software). Data analysis was performed using the FlowJo version 10 software (FlowJo LLC).
# [4] = molecular target: T2, human fibroblast activation protein (huFAP) (human, UniProt Q12884 1-760); test: flow cytometry on NIH/3T3-huFAP clone 19 cells, PE-labelled anti-human IgG Fcgamma F(ab')2 secondary, MFI baseline corrected
# T2 construct: expressed on transfected NIH/3T3-huFAP clone 19 cells; also called human FAP
# Experimental: (§2) NIH/3T3-huFAP clone 19 and NIH/3T3-mFAP clone 26 were generated by the transfection of the mouse embryonic fibroblast NIH/3T3 cell line (ATCC CRL-1658) with the expression vector pETR4921 to express under 1.5 μg/mL Puromycin selection huFAP or mFAP, respectively.
# as §1, with “NIH/3T3-huFAP, NIH/3T3-mFAP or NIH/3T3-wt” for “The binding to cell surface CD40 was tested using Daudi cells, a human B lymphoblast cell line with high expression levels of human CD40 (ATCC CCL-213). Daudi”, “1797306A). For the NIH/3T3-huFAP and NIH/3T3-mFAP cells 1.5 μg/mL Puromycin (Gibco, Cat. No. A11138-03) was added to the medium for selection of FAP-expressing cells. NIH/3T3 cells were removed from the plate by using enzyme-free Cell Dissociation Buffer (Gibco, Cat. No. 13151014).” for “1797306A).”, “NIH/3T3-huFAP clone 19, NIH/3T3-mFAP clone 26 or NIH/3T3-wt” for “Daudi cells”, “1×DMEM” for “1×DMEM with”, “using” for “using a”, “Data analysis was performed using the FlowJo version 10 software (FlowJo LLC).” left out
# [5] = molecular target: T3, mouse fibroblast activation protein (mFAP) (mouse, UniProt P97321 1-761); test: flow cytometry on NIH/3T3-mFAP cells (3T3_mFAP), PE-labelled anti-human IgG Fcgamma F(ab')2 secondary, MFI baseline corrected
# T3 construct: expressed on transfected NIH/3T3-mFAP clone 26 cells; also called murine FAP; mouse FAP
# T3 sequence (P97321 whole entry): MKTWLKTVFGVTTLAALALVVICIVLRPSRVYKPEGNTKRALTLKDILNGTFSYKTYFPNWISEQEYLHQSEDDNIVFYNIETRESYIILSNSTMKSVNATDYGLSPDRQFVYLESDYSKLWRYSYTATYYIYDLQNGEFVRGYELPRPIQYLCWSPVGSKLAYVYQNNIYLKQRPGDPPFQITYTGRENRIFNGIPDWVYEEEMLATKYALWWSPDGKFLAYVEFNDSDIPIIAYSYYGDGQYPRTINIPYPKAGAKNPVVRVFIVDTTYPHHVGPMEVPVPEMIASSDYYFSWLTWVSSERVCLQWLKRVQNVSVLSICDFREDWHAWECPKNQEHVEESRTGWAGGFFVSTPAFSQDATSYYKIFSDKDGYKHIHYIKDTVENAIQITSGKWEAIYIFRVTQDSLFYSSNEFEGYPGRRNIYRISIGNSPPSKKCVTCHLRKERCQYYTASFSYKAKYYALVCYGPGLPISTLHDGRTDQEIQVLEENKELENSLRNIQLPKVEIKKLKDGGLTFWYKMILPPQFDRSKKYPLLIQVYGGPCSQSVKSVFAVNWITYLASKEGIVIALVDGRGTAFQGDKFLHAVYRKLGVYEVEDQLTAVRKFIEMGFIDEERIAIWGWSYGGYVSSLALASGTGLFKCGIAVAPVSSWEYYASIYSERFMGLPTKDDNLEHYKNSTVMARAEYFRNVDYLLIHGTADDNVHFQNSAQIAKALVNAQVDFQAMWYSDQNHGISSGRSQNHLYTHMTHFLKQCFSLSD
# Experimental: as §2
# as §1, with “NIH/3T3-huFAP, NIH/3T3-mFAP or NIH/3T3-wt” for “The binding to cell surface CD40 was tested using Daudi cells, a human B lymphoblast cell line with high expression levels of human CD40 (ATCC CCL-213). Daudi”, “1797306A). For the NIH/3T3-huFAP and NIH/3T3-mFAP cells 1.5 μg/mL Puromycin (Gibco, Cat. No. A11138-03) was added to the medium for selection of FAP-expressing cells. NIH/3T3 cells were removed from the plate by using enzyme-free Cell Dissociation Buffer (Gibco, Cat. No. 13151014).” for “1797306A).”, “NIH/3T3-huFAP clone 19, NIH/3T3-mFAP clone 26 or NIH/3T3-wt” for “Daudi cells”, “1×DMEM” for “1×DMEM with”, “using” for “using a”
# [6] = molecular target: T2, human fibroblast activation protein …; test: flow cytometry, NIH/3T3-huFAP clone 19 cells, PE anti-human Fc F(ab')2
# Experimental: as §2
# as §1, with “NIH/3T3-huFAP, NIH/3T3-mFAP or NIH/3T3-wt” for “The binding to cell surface CD40 was tested using Daudi cells, a human B lymphoblast cell line with high expression levels of human CD40 (ATCC CCL-213). Daudi”, “1797306A). For the NIH/3T3-huFAP and NIH/3T3-mFAP cells 1.5 μg/mL Puromycin (Gibco, Cat. No. A11138-03) was added to the medium for selection of FAP-expressing cells. NIH/3T3 cells were removed from the plate by using enzyme-free Cell Dissociation Buffer (Gibco, Cat. No. 13151014).” for “1797306A).”, “NIH/3T3-huFAP clone 19, NIH/3T3-mFAP clone 26 or NIH/3T3-wt” for “Daudi cells”, “1×DMEM” for “1×DMEM with”, “using” for “using a”
# [7] = molecular target: T4, His-tagged human dimeric FAP (recombinant FAP_ECD) (human, UniProt Q12884 27-760); test: SPR (Biacore T200), His-tagged dimeric huFAP ECD captured by anti-His, antibody as analyte, 1:1 fit (avidity)
# T4 construct: also called hu FAP ectodomain + poly-lys-tag + his6-tag
# Experimental: The capacity of the bispecific constructs to bind human FAP was assessed by surface plasmon resonance (SPR). All SPR experiments were performed on a BIACORE® T200 (BIACORE®) at 25° C. with HBS-EP as running buffer (0.01 M HEPES pH 7.4, 0.15 M NaCl, 3 mM EDTA, 0.005% Surfactant P20, (BIACORE®).
# His-tagged human dimeric FAP (recombinant FAP_ECD) was captured on a CM5 chip (GE Healthcare) immobilized with anti-His antibody (Qiagen Cat. No. 34660) by injection of 500 nM huFAP for 60 s at a flow rate of 10 uL/min, 10 nM murine FAP for 20 s at a flow rate of 20 uL/min and 10 nM cynoFAP for 20 s at a flow rate of 20 uL/min. Immobilization levels for the anti-His antibody of up to 18000 resonance units (RU) were used. Following the capture step, the bispecific antibodies as well as control molecules were immediately passed over the chip surface at a concentration ranging from 0.78-100 nM with a flow rate of […] for 280 s and a dissociation phase of 180 s. Bulk refractive index differences were corrected for by subtracting the response obtained in a reference flow cell, where no FAP was immobilized. Avidity was determined using the Langmuir 1:1 curve fitting. For bivalent binding the same 1:1 fitting was used leading to an apparent KD value.
# T1 sequence (P25942 21-277 limits assumed): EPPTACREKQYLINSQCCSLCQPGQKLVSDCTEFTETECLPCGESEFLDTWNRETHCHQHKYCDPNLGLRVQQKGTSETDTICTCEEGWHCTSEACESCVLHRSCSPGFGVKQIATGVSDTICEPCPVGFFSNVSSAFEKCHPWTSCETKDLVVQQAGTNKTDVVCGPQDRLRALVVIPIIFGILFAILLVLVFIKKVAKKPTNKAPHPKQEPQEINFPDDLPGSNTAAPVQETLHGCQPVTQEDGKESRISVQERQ
"EC50, activation of human Daudi cells (CD70 expression) with FAP-coated Dynabeads (human CD40 [1])","EC50, activation of HEK-Blue CD40L cells (SEAP) with murine FAP-coated Dynabeads (human CD40 [2])",EC50 (human CD40 [3]),binding result [4],binding result [5],EC50 [6],Kd [7],koff [7],kon [7],EC50 (read off the curve) [5],EC50 (read off the curve) [4],Binder
0.166 nM,0.421 nM,0.031 nM,no binding (tested: 500 nM),no binding (tested: 500 nM),–,–,–,–,–,–,"P1AD4574 CD40 × DP47 (4 + 1) (bispecific antibody, also called huCD40-DP47) heavy 1: not shown heavy 2: not shown light: DIQMTQSPSSLSASVGDRVTITCRSSQSLVHSNGNTFLHWYQQKPGKAPKLLIYTVSNRFSGVPSRFSGSGSGTDFTLTISSLQPEDFATYFCSQTTHVPWTFGQGTKVEIKRTVAAPSVFIFPPSDEQLKSGTASVVCLLNNFYPREAKVQWKVDNALQSGNSQESVTEQDSKDSTYSLSSTLTLSKADYEKHKVYACEVTHQGLSSPVTKSFNRGEC"
–,–,–,–,–,1.15 nM,2.2 nM,0.00145 s⁻¹,663000 M⁻¹ s⁻¹,~1 nM,–,"P1AE0192 CD40 × FAP (28H1) (1 + 1) Crossmab (bispecific antibody, human IgG1, kappa, L234A L235A, monovalent for CD40 and for FAP; also called CD40 × FAP 1 + 1; 1+1 format) heavy 1: not shown heavy 2: EVQLVESGGGLVQPGGSLRLSCAASGYSFTGYYIHWVRQAPGKGLEWVARVIPNAGGTSYNQKFKGRFTLSVDNSKNTAYLQMNSLRAEDTAVYYCAREGIYWWGQGTLVTVSSASTKGPSVFPLAPSSKSTSGGTAALGCLVEDYFPEPVTVSWNSGALTSGVHTFPAVLQSSGLYSLSSVVTVPSSSLGTQTYICNVNHKPSNTKVDEKVEPKSCDKTHTCPPCPAPEAAGGPSVFLFPPKPKDTLMISRTPEVTCVVVDVSHEDPEVKFNWYVDGVEVHNAKTKPREEQYNSTYRVVSVLTVLHQDWLNGKEYKCKVSNKALGAPIEKTISKAKGQPREPQVCTLPPSRDELTKNQVSLSCAVKGFYPSDIAVEWESNGQPENNYKTTPPVLDSDGSFFLVSKLTVDKSRWQQGNVFSCSVMHEALHNRFTQKSLSLSPGK light 1: DIQMTQSPSSLSASVGDRVTITCRSSQSLVHSNGNTFLHWYQQKPGKAPKLLIYTVSNRFSGVPSRFSGSGSGTDFTLTISSLQPEDFATYFCSQTTHVPWTFGQGTKVEIKRTVAAPSVFIFPPSDRKLKSGTASVVCLLNNFYPREAKVQWKVDNALQSGNSQESVTEQDSKDSTYSLSSTLTLSKADYEKHKVYACEVTHQGLSSPVTKSFNRGEC light 2: EVQLLESGGGLVQPGGSLRLSCAASGFTFSSHAMSWVRQAPGKGLEWVSAIWASGEQYYADSVKGRFTISRDNSKNTLYLQMNSLRAEDTAVYYCAKGWLGNFDYWGQGTLVTVSSASVAAPSVFIFPPSDEQLKSGTASVVCLLNNFYPREAKVQWKVDNALQSGNSQESVTEQDSKDSTYSLSSTLTLSKADYEKHKVYACEVTHQGLSSPVTKSFNRGEC"
–,–,–,–,–,3.64 nM,–,–,–,~4 nM,~4 nM,"P1AD4455 CD40 × FAP (28H1) (4 + 2) (bispecific antibody, human IgG1, kappa, L234A L235A, tetravalent for CD40, bivalent for FAP; also called CD40 × FAP 4 + 2; huCD40-28H1) heavy: not shown light 1: DIQMTQSPSSLSASVGDRVTITCRSSQSLVHSNGNTFLHWYQQKPGKAPKLLIYTVSNRFSGVPSRFSGSGSGTDFTLTISSLQPEDFATYFCSQTTHVPWTFGQGTKVEIKRTVAAPSVFIFPPSDRKLKSGTASVVCLLNNFYPREAKVQWKVDNALQSGNSQESVTEQDSKDSTYSLSSTLTLSKADYEKHKVYACEVTHQGLSSPVTKSFNRGEC light 2: EVQLLESGGGLVQPGGSLRLSCAASGFTFSSHAMSWVRQAPGKGLEWVSAIWASGEQYYADSVKGRFTISRDNSKNTLYLQMNSLRAEDTAVYYCAKGWLGNFDYWGQGTLVTVSSASVAAPSVFIFPPSDEQLKSGTASVVCLLNNFYPREAKVQWKVDNALQSGNSQESVTEQDSKDSTYSLSSTLTLSKADYEKHKVYACEVTHQGLSSPVTKSFNRGEC"
–,–,0.036 nM,no binding (tested: 500 nM),no binding (tested: 500 nM),–,–,–,–,–,–,"P1AD4465 CD40 × DP47 (4 + 2) (bispecific antibody, also called huCD40-DP47) heavy: not shown light 1: DIQMTQSPSSLSASVGDRVTITCRSSQSLVHSNGNTFLHWYQQKPGKAPKLLIYTVSNRFSGVPSRFSGSGSGTDFTLTISSLQPEDFATYFCSQTTHVPWTFGQGTKVEIKRTVAAPSVFIFPPSDRKLKSGTASVVCLLNNFYPREAKVQWKVDNALQSGNSQESVTEQDSKDSTYSLSSTLTLSKADYEKHKVYACEVTHQGLSSPVTKSFNRGEC light 2: not shown"

# — patent US20250179205A1 (Hoffmann-La Roche, published 2025)
